{"source": "patent US20250012721A1", "about": "“FLUORESCENCE DETECTION KIT FOR ACTIVATED COMPLEMENT C1s, DETECTION METHOD USING SAME, AND USE THEREOF” (JIANGSU UNIVERSITY, priority 2022, published 2025)", "molecular_target": "T1, activated C1s (Homo sapiens, UniProt P09871)", "T1 construct": "purchased Complement Technology", "T1 sequence (P09871 16-437 limits assumed)": "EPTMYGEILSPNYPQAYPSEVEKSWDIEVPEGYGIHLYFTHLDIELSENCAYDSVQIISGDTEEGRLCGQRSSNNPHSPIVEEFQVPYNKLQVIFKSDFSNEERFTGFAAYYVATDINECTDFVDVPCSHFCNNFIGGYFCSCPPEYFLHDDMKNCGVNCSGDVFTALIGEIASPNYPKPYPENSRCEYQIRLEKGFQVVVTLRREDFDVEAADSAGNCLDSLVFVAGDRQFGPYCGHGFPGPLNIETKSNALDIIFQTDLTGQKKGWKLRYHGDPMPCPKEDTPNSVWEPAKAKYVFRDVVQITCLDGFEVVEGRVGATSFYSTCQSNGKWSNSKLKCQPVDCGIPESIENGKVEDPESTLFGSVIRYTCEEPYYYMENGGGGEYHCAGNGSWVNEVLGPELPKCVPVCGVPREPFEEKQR", "T1 sequence (P09871 438-688 limits assumed)": "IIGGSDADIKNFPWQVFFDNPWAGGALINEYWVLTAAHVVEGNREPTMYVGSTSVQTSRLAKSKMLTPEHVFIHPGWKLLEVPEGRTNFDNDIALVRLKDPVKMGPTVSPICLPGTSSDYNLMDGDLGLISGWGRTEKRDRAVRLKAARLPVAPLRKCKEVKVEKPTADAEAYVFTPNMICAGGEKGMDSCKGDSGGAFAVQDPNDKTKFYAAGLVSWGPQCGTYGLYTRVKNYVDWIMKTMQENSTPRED", "experiment": "Anti-interference experiment of fluorescence detection method for activated C1s", "assay_type": "biochemical", "conditions": "for measured activated C1s enzymatic activity: n = 4", "experimental": "• 1. Preparation of a buffer: 1) Binding Buffer: 0.1 M morpholinoethanesulfonic acid (MES, pH=5.0); • 2) Washing Buffer: TBS containing 0.05% Tween 20; • 3) Blocking Buffer: containing 0.05 M Tris, 1.0% BSA, and 0.05% Tween 20; • 4) Desired Buffer: Tris buffer containing 0.05% Tween 20 and BSA; and • 5) Tris Buffer: 0.05 M Tris, 0.15 M NaCl, and 0.2% (w/v) polyethylene glycol 8000. • 2. Preparation of immunomagnetic beads (C1s recombinant antibody-coupled magnetic beads) • (1) 10 mg of magnetic beads (Merck carboxyl magnetic beads, with a particle size of 1 μm) were washed 3 times with 1 mL of Binding Buffer, and vortexed to mix evenly. • (2) 20 μg of the C1s recombinant antibody obtained in Example 1 was added into every 1 mg of the magnetic beads, mixed well, and vortexed at a room temperature (25° C.) for 15 min. • (3) 50 μg of a coupling agent was added into every 1 mg of the magnetic beads, mixed well, and vortexed at a room temperature for 1 h. • (4) 1 mL of Binding Buffer was added and vortexed at a room temperature for 3 h. • (5) The magnetic beads were washed 4 times with 0.5 mL of Washing Buffer. • (6) The magnetic beads were resuspended with 1 mL of Desired Buffer to obtain C1s recombinant antibody-coupled magnetic beads with a concentration of 5 mg/mL, and stored at 4° C. until later use. • 3. Detection of the enzymatic activity of activated C1s • (1) 60 μL of the C1s recombinant antibody-coupled magnetic beads were stirred evenly, subjected to magnetic suction to remove a supernatant, added with 200 μL of PBS to mix well, subjected to the magnetic suction to remove a supernatant, and washed repeatedly 2 times. • (2) 10 μL of a sample to be tested or activated C1s standards with different concentrations were diluted to 100 μL with PBS, and mixed vertically with the C1s recombinant antibody-coupled magnetic beads at a room temperature for 10 min. The magnetic suction was performed to discard a supernatant. According to the enzymatic activity of the C1s standard determined in Example 4, the enzymatic activity conversion of the C1s standards with different concentrations is shown in Table 2.\n• (3) The magnetic beads were repeatedly washed 3 times with 100 μL of PBS. • (4) The magnetic beads were resuspended with 90 μL of Tris buffer. • (5) 10 μL of substrate peptide 3 was added at a concentration of 1 μg/mL. • (6) The detection was performed with a microplate reader at 360/40 excitation light wave and 460/40 emission light wave, with a best reaction time of 1 h as a detection point, and the fluorescence signals were measured and recorded. The straight line fitting was performed by taking a C1s enzymatic activity as an abscissa and a fluorescence signal as an ordinate with a double logarithmic Log-Log mathematical model and using a least square method to plot a standard curve.\nThe possibility that bilirubin, chyle, and hemoglobin in clinical samples cause interference in the experiment was taken into account. Referring to the interference check A kit, high-, medium-, and low-concentration standards were added with different concentrations of bilirubin (with final concentrations of 0 mg/mL, 0.06 mg/mL, 0.14 mg/mL, and 0.20 mg/mL, respectively), chyle (with final concentrations of 0 FTU, 600 FTU, 1,400 FTU, and 2,000 FTU, respectively), and a hemoglobin solution (with final concentrations of 0 mg/mL, 1.5 mg/mL, 3.5 mg/mL, and 5 mg/mL, respectively). The measured high, medium and low average concentrations containing different interfering substances were subtracted from the corresponding average concentrations without interfering substances, and a difference and a percentage of the difference in an average concentration of a blank control without interfering substances were calculated.", "data": [{"substance": "Hemoglobin: hemoglobin solution, interfering substance from interference check A kit", "values": [{"measurement": "measured activated C1s enzymatic activity", "setting": "High value standard, hemoglobin 1.5 mg/mL", "value": "60.57 ± 3.66", "unit": "pmol/min/µg"}, {"measurement": "measured activated C1s enzymatic activity", "setting": "High value standard, hemoglobin 3.5 mg/mL", "value": "56.23 ± 4.58", "unit": "pmol/min/µg"}, {"measurement": "measured activated C1s enzymatic activity", "setting": "High value standard, hemoglobin 5 mg/mL", "value": "59.50 ± 5.13", "unit": "pmol/min/µg"}, {"measurement": "measured activated C1s enzymatic activity", "setting": "Low value standard, hemoglobin 1.5 mg/mL", "value": "6.00 ± 0.59", "unit": "pmol/min/µg"}, {"measurement": "measured activated C1s enzymatic activity", "setting": "Low value standard, hemoglobin 3.5 mg/mL", "value": "6.2 ± 0.56", "unit": "pmol/min/µg"}, {"measurement": "measured activated C1s enzymatic activity", "setting": "Low value standard, hemoglobin 5 mg/mL", "value": "6.37 ± 0.51", "unit": "pmol/min/µg"}, {"measurement": "measured activated C1s enzymatic activity", "setting": "Medium value standard, hemoglobin 1.5 mg/mL", "value": "29.47 ± 1.15", "unit": "pmol/min/µg"}, {"measurement": "measured activated C1s enzymatic activity", "setting": "Medium value standard, hemoglobin 3.5 mg/mL", "value": "28.16 ± 2.68", "unit": "pmol/min/µg"}, {"measurement": "measured activated C1s enzymatic activity", "setting": "Medium value standard, hemoglobin 5 mg/mL", "value": "28.23 ± 1.45", "unit": "pmol/min/µg"}, {"measurement": "interference with the detection method", "setting": "hemoglobin 5 mg/mL", "value": "not interfered"}]}]}
